Experiments:
[1] = biological target: RSV postfusion F (postF), F deltaFP (respiratory syncytial virus, UniProt P03420 26-513); assay: BLI, IgG on sensor, 100 nM antigen
[2] = biological target: RSV fusion glycoprotein (RSV F) on RSV-A2 virus (respiratory syncytial virus, UniProt P03420 26-574); assay: cell-based or functional assay
[3] = biological target: RSV prefusion F (preF), DS-Cav1 (respiratory syncytial virus, UniProt P03420 26-513); assay: BLI, IgG on sensor
[4] = biological target: RSV F on RSV subtype B virus (mKate-RSV B 18537) (Respiratory Syncytial Virus, subtype B, …, UniProt P13843 26-574); assay: cell-based or functional assay
[5] = biological target: T1, RSV F on RSV subtype A virus (RSV-A2) (Respiratory Syncytial Virus, subtype A, …, UniProt P03420 26-574); assay: cell-based or functional assay
[6] = biological target: T2, RSV prefusion F (preF), DS-Cav1 stabilized trimer, subtype A (Respiratory Syncytial Virus, subtype A, UniProt P03420 26-513); assay: BLI, IgG on anti-human IgG sensors, 100 nM antigen, apparent KD
[7] = biological target: T3, RSV postfusion F (postF), F ΔFP trimer, subtype A (Respiratory Syncytial Virus, subtype A, UniProt P03420 26-513); assay: as above
[8] = biological target: T1, RSV F on RSV subtype A virus (RSV-A2); assay: cell-based or functional assay; remark: listed apart in the source
[9] = biological target: T3, RSV postfusion F (postF), F ΔFP trimer, …; assay: BLI, IgG (Table 9A)
[10] = biological target: T2, RSV prefusion F (preF), DS-Cav1 …; assay: BLI, apparent IgG KD (Table 9A)

B1: ADI-41361 (antibody, V domains shown)
VH: QVQLQESGGGVVQPGRSLRLSCAASGFAFSDYAMDWVRQAPGKGLEWVAVISFDGSNKFYADSVKGRFTISRDNSENTLFLQMNSLRAEDTAVYYCVRDFVPCSGATCYLPPVYWGRGTLVTVSS
VL: EIVLTQSPATLSVSPGERATLSCRASQSVSSDLAWYQQKPGQAPRLLIYGASTRATGIPARFSGSGSGTEFTLTISRLQSEDFAVYFCQQYNNWPSWTFGQGTKVEIK
notes: IgG1; also called Ab 658
[1]
  Kd: 0.383 nM
[2]
  Neutralization IC50 (RSV subtype A): 2.54 mg/L
[3]
  binding result: no binding (tested: 100 nM antigen)

B2: ADI-20998 (antibody, V domains shown)
VH: QVQLVQSGGGVVQPGRSLRLSCAASGFTLSTYGMHWVRQAPGKGLEWVAVIYYDESNKFYADSVQGRFTISRDDSKNTLFLQMNSLRAEDTAVYYCARESRPRGYSYSDFDSWGQGTLVTVSS
VL: QPGLTQPRSVSGSPGQSVTISCTGTSSDVGTFNYVSWYQQHPGKAPKLMIYDVNQRPSGVPDRFSGSKSGNTASLTISGLQAEDEADYYCCAYAGYYSFGGGTKLTVL
[4]
  neut IC50 (ug/ml) subtype B (graham): > 25 µg/mL
[5]
  Neutralization - RSV A2 IC50 (pM): 74 pM
  neut IC50 (ug/ml) subtype A (graham): 0.03 µg/mL

B3: ADI-41818 (antibody, V domains shown)
VH: EVQLVESGGGLVQPGGSLRLSCAASGFTVNTNYMSWVRQAPGKGLEWVSIIYSSGSTSYADSVKGRFTISRDNSENTLYLQMHTLRAEDTAVYYCVRERTPFYYVSSGYWDSWGQGTLVTVSS
VL: EIVLTQSPGTLSLSPGERATLSCRASQSVDSSYLAWYQQKPGQAPRLLIFGASSRATGIPDRFSGSGSGTDFTLTISRLEPEDFAVYYCQQYGFSYTFGQGTKVEIK
[6]
  Kd: 0.676 nM
[7]
  Kd: 0.347 nM
[8]
  Neutralization IC50 (RSV subtype A): > 25 mg/L

B4: ADI-14583 (antibody, V domains shown)
VH: QVQLVQSGAEVKEPGASVKVSCKASGYTFTNYGISWVRQAPGQGLEWLGWISAYNGNIHYAQKVQGRVTMTTDTSTSTGFMELRSLRSDDTAVYYCAREPPVIAAGDFQHWGQGTLVTVSS
VL: ETTLTQSPLSLPVTLGQPASISCRSSQSLVHSNGNTYLSWFQQRPGQSPRRLIYRVSNRDSGVPDRFSGSGSGTDFTLKISRVEAEDVGLYYCMQGTHWPPDFGQGTRLEIK
[4]
  neut IC50 (ug/ml) subtype B (graham): 0.06 µg/mL
[5]
  Neutralization - RSV A2 IC50 (pM): 125 pM
  neut IC50 (ug/ml) subtype A (graham): 0.05 µg/mL

B5: ADI-41350 (antibody, V domains shown)
VH: EVQLVESGAGLVQPGGSLRLSCAASGFTFSTYAVSWVRQAPGKGLEWVSAISGSGASTYFADSVKGRFTISRDNSKNTLYLQMNSLRAEDTAVYYCAKARLELRPYYYGMDVWGQGTTVTVSS
VL: QPVLTQPASVSGSPGQSITISCTGTSSDVGGYNFVSWYQQHPGKAPKLIIYEVSNRPSGVSNRFSGSKSGNTASLTISGLQAEDEADYYCSSSTLSTTYVFGTGTKVTVL
notes: IgG1
[1]
  Kd: 0.602 nM
[2]
  Neutralization IC50 (RSV subtype A): > 25 mg/L
[3]
  binding result: no binding (tested: 100 nM antigen)

B6: ADI-41842 (antibody, V domains shown)
VH: QVQLVQSGAEVKKPGASVRVSCKASGYTFTHYDINWVRQAPGQGLEWMGWINPNSGDTDYAQKFQGRVTMTVDTSISTAYLDLRSLTSADAAVYYCARGGAYATNGYYIIWFDPWGQGTLVTVSS
VL: DIVVTQSPSSLSASVGDRVTITCRASQSISRYLNWFQKKPGKAPHLLIYAASILQSEVPSRFSGSGSGTDFTLTISSLQPEDFATYYCQQSYNSPYTFGPGTKVDIK
notes: also called Ab 942; Antibody Number 942
[6]
  Kd: 0.717 nM
[7]
  Kd: 0.442 nM
[8]
  Neutralization IC50 (RSV subtype A): > 25 mg/L

B7: ADI-41379 (antibody, V domains shown)
VH: QVQLVQSGAEVKKPGESLKISCKGSGYSFSSFWIGWVRQMPGKGLEWMGIIYPGDSDTRYSPSFKGQVTISADTSISTAYLQWSSLKASDTAMYYCAKSIVGSTGSFDPWGQGTLVTVSS
VL: DIQMTQSPSSLSASVGDRVTITCQASQDISNFLNWYQQKPGKAPKLLIYDASNLRTGVPSRFSGSGSGTEFTFTISSLQPEDIATYYCQQYHDLPPLTFGGGTKVDIK
notes: IgG1
[1]
  Kd: 1.11 nM
[2]
  Neutralization IC50 (RSV subtype A): > 25 mg/L
[3]
  binding result: no binding (tested: 100 nM antigen)

B8: ADI-41400 (antibody, V domains shown)
VH: EVQLLESGGGLIQPGGSLRLSCAASKFTFSDYEMNWVRQAPGKGLEWLSYISSSGGIMYYADSVKGRFTISRDNAKNSLYLQMNSLRAEDTAVYFCARAGRLLSGLDVWGHGTTVTVSS
VL: EIVLTQSPSTLSASVGDRVTITCRASQSISPWLAWYQQKPGKAPKLLIYRASSLETGVPPRFSGSGSGTEFTLTISSLQPDDFATYYCQHYNSYLYSFGQGTKVEIK
notes: IgG1; also called Ab 693
[1]
  Kd: 0.547 nM
[2]
  Neutralization IC50 (RSV subtype A): > 25 mg/L
[3]
  binding result: no binding (tested: 100 nM antigen)

B9: ADI-14334 (antibody, V domains shown)
VH: EVQLVESGGGLVKPGGSLRLSCAASGVTVSSYYMTWVRQAPGKGLEFISDISSSSTYTNYADSVKGRFTISRDNAKSSLYLQMNNLRAEDTAVYYCARLGITVTGVGYFDLWGRGTLVTVSS
VL: QPGLTQPPSVSGAPGQRVTISCTGSSSNIGAGYDVHWYQQLPGTAPKLLIHDNNNRPSGVPDRFSGSKSGTSASLAITGLQVEDEADYYCQSYDSSLSNYVFGTGTKLTVL
[4]
  neut IC50 (ug/ml) subtype B (graham): 0.11 µg/mL
[5]
  Neutralization - RSV A2 IC50 (pM): 189 pM
  neut IC50 (ug/ml) subtype A (graham): 0.05 µg/mL

B10: ADI-41814 (antibody, V domains shown)
VH: EVQLLESGPTLVKPTQTLTLTCTFSGFSLSTFGVGVGWIRQPPGKALECLALIYWDDDKRYSPSLKSRLTITRDTSKNQVVLTMTNMDPVDTATYYCAHRRSSTVTTGFFDYWGRGTLVTVSS
VL: QPVLTQPPSVSGAPGQRVTVSCTGNSSNIGAGHGAHWYQQLPGTAPKLLIYGSTDRPSGVPDRFFGSQSGTSASLVITELRAEDEADYYCQSFDSSLSIWVFGGGTKLTVL
notes: also called Ab 921; Antibody Number 921
[6]
  Kd: 3.39 nM
[7]
  Kd: 0.915 nM
[8]
  Neutralization IC50 (RSV subtype A): > 25 mg/L

B11: ADI-41817 (antibody, V domains shown)
VH: QVQLVQSGAEVKKPGESLKISCKGPGYSFTTYWIGWVRQMPGKGLEWMGIIYPGDSDTKYSPSFQGQVTITADKSIATAYLQWSRLKASDTAVYYCATVVTYADNIRWFDSWGQGTLVTVSS
VL: QSALTQPASVSGSPGQSITISCTGTSGDVGGYKFVSWYQHHPGKAPKLVIYDVANRPSGVSDRFSGSKSGTTASLTISGLQAEDEADYYCSSYTSSSTYVFGTGTKVTAL
[6]
  Kd: 6.94 nM
[7]
  Kd: 15.8 nM
[8]
  Neutralization IC50 (RSV subtype A): > 25 mg/L

B12: ADI-20974 (antibody, V domains shown)
VH: EVQLVESGGGLVKPGGSLRLSCAASGFSFSSYQINWVRQAPGKGLEWVSSISGGSSYTDYADSIKGRFTISRDNAKKSAFLQMKSLRADDTAVYYCARALMATAGGLAFDIWGQGTMVTVSS
VL: QPVLTQPPSVSGAPGQRVTISCTGSGSNIGAGYDVHWYQQVPGTAPKLLILRNTNRPSGVPDRFSGSKSGTSASLAITGLQAEDEADYYCQSYDRSLSVVFGGGTKLTVL
[9]
  binding result: no binding
[4]
  neut IC50 (ug/ml) subtype B (graham): 0.09 µg/mL
[5]
  Neutralization - RSV A2 IC50 (pM): 75.4 pM
  neut IC50 (ug/ml) subtype A (graham): 0.003 µg/mL
[10]
  Kd: 0.29 nM

B13: ADI-20964 (antibody, V domains shown)
VH: QVQLVQSGAEVKKPGASVKVSCKASGYTFTHYGISWVRQAPGQGLEWMGWISAYNGNTNYAQKLQGRVTMTTDTSTSTAYMEVRSLRYDDTAVYYCARDVPVEAATSPEFWGQGTLVTVSS
VL: DIVMTQTPLSLPVTLGQPASISCRSSQSLVYSDGNTYLSWFQQRPGQSPRRLIYKVSNRDSGVPNRFSGSGSGTDFTLKISRVEAEDVGVYYCVQNTHWPAYTFGQGTKVEIK
[9]
  binding result: no binding
[4]
  neut IC50 (ug/ml) subtype B (graham): 0.14 µg/mL
[5]
  Neutralization - RSV A2 IC50 (pM): 162 pM
  neut IC50 (ug/ml) subtype A (graham): 0.06 µg/mL
[10]
  Kd: 0.36 nM

B14: ADI-41841 (antibody, V domains shown)
VH: EVQLLESGGGLVKPGGSLRLSCAASGFSFSYYSMNWVRQTPGKGLEWVSSISDRSSYISYADSVKGRFTISRDNAKNSLYLQMNSLRAEDTAVYYCARDQYESYAFDIWGQGTTVTVSS
VL: DIQVTQSPSSLSASVGDRITITCQASQDVGNYLNWYQQKVGKAPKLLIHDASDLETGVPSRFSGSGSGTYFTFTISSLQPEDFATYYCQPYDNLRPVTFGQGTRLEIK
[6]
  Kd: 0.121 nM
[7]
  Kd: 0.265 nM
[8]
  Neutralization IC50 (RSV subtype A): 0.04 mg/L

From patent US20260258115A1 (MAPP BIOPHARMACEUTICAL, published 2026)
